This is an account of results in US20110142789A1 (University of Pennsylvania, published 2011).

The target in this test is T1, endogenous human Ataxin-2 (human, UniProt Q99700 1-1313, limits assumed).
T1 construct: Endogenous protein in HEK293T lysate, detected by immunoblot with α-Ataxin-2 (BD); also called ATXN2
Description: co-immunoprecipitation from HEK293T lysate (α-GFP IP, α-Ataxin-2 blot). The source says: CFP-Pbp1 and TDP-43-YFP show accumulations in yeast that frequently co-localize (arrows). b) Co-immunoprecipitation assays in yeast. Yeast cells co-transformed with untagged TDP-43 and either CFP-Pbp1 or CFP alone were lysed and subjected to immunoprecipitation with an α-GFP antibody (also detects CFP), then subjected to immunoblotting with a-TDP43. […] HEK293T cells were transfected with expression constructs encoding YFP, TDP-43-YFP, TDP-43ΔNLS-YFP (NLS mutant that localizes the protein to the cytoplasm), TDP-43_{ΔNLS,5F}_{_{→}}L-YFP (NLS mutant coupled with RNA-binding mutant, (5 point mutations in the RRM domains that abolish RNA-binding)), or TDP-435F_{_{→}}L-YFP (RNA-binding mutant). Protein was immunoprecipitated with a-GFP antibody (detects YFP), and then subjected to immunoblotting with a-Ataxin-2 to detect endogenous Ataxin-2. […] The interaction between Ataxin-2 and TDP-43 seen normally (left lanes) was abolished upon RNase treatment (right lanes). e) HEK293T cells transfected with YFP-tagged WT and mutant TDP-43 constructs then immunostained for endogenous Ataxin-2. Normally, Ataxin-2 is localized to the cytoplasm forming occasional cytoplasmic accumulations. TDP-43 localized to the nucleus in a diffuse pattern. […]

T1 sequence (Q99700 whole entry): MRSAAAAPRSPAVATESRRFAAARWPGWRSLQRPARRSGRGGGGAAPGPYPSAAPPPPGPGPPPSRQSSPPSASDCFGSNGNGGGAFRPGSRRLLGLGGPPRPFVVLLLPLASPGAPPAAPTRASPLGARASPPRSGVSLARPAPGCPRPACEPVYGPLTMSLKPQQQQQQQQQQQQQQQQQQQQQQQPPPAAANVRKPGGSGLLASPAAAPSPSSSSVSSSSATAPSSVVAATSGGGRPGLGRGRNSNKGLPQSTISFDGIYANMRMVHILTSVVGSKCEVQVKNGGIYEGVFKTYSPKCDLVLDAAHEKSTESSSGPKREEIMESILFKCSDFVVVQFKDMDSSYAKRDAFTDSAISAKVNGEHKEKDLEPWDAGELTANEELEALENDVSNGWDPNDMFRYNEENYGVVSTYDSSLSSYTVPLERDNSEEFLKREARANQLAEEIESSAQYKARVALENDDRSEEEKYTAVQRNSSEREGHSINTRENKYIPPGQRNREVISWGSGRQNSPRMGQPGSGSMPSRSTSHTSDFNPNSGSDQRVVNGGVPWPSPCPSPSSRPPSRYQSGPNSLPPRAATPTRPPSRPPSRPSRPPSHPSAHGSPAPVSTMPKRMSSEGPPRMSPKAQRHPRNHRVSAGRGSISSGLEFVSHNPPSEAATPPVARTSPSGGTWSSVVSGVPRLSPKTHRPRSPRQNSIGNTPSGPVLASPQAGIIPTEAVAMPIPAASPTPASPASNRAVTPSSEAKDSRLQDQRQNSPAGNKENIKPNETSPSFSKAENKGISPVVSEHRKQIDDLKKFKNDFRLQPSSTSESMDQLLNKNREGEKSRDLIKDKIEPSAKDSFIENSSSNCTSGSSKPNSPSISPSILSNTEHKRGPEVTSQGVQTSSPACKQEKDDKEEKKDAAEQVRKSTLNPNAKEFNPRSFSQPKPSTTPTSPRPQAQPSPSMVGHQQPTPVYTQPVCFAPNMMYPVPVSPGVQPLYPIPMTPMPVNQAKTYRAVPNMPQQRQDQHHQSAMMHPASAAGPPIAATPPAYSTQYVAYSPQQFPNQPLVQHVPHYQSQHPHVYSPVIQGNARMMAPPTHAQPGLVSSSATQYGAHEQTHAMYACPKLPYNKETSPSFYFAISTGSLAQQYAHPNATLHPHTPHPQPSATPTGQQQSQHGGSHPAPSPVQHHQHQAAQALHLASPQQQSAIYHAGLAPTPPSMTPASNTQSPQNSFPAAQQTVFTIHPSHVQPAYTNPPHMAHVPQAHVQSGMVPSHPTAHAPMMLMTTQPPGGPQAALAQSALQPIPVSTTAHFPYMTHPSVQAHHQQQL

B1: TDP-43ΔNLS,5F→L-YFP (other, human, UniProt Q13148 1-414, looked up)
chain: MSEYIRVTEDENDEPIEIPSEDDGTVLLSTVTAQFPGACGLRYRNPVSQCMRGVRLVEGILHAPDAGWGNLVYVVNYPKDNAAAMDETDASSAVKVKRAVQKTSDLIVLGLPWKTTEQDLKEYFSTFGEVLMVQVKKDLKTGHSKGLGLVRFTEYETQVKVMSQRHMIDGRWCDCKLPNSKQSQDEPLRSRKVLVGRCTEDMTEDELREFFSQYGDVMDVFIPKPFRALALVTFADDQIAQSLCGEDLIIKGISVHISNAEPKHNSNRQLERSGRFGGNPGGFGNQGGFGNSRGGGAGLGNNQGSNMGGGMNFGAFSINPAMMAAAQAALQSSWGMMGMLASQQNQSGPSGNNQNQGNMQREPNQAFGSGNNSYSGSNSGAAIGWGSASNAGSGSGFNGGFGSSMDSKSSGWGM
notes: also called ΔNLS-TDP-43-(5F→L)-YFP; not shown: C-terminal YFP tag
Turning to B1, the binding result is “no binding”.
